In the Immune Epitope Database (IEDB):
pIC50, pKd: −log10 of the molar value.

Tests used:
HLA-B*08:01 [1] = test: IEDB peptide-MHC binding, purified MHC/competitive/radioactivity; filed as Kd, often an IC50 or EC50 that approximates it; ≥ and ≤ were set here for values at or beyond the usual limits of such assays
HLA-B*15:03 = test: as above
HLA-A*30:01 = test: as above
HLA-B*15:01 [2] = test: as above
HLA-A*32:01 = test: as above
HLA-A*02:01 [3] = test: as above
HLA-A*11:01 [4] = test: IEDB peptide-MHC binding, purified MHC/competitive/fluorescence; ≥ and ≤ were set here for values at or beyond the usual limits of such assays
HLA-B*08:01 [5] = test: IEDB peptide-MHC binding, purified MHC/direct/fluorescence; filed as Kd, often an IC50 or EC50 that approximates it; ≥ and ≤ were set here for values at or beyond the usual limits of such assays; settings: source organism: Giardia lamblia ATCC 50803
HLA-B*57:01 = test: as above; settings: source organism: Giardia lamblia ATCC 50803
HLA-A*02:01 [6] = test: as above; settings: source organism: Giardia lamblia ATCC 50803
HLA-A*31:01 = test: as above; settings: source organism: Giardia lamblia ATCC 50803
HLA-B*40:01 = test: as above; settings: source organism: Giardia lamblia ATCC 50803
HLA-B*44:02 = test: as above; settings: source organism: Giardia lamblia ATCC 50803
HLA-A*11:01 [7] = test: as above; settings: source organism: Giardia lamblia ATCC 50803
HLA-B*15:17 = test: as above; settings: source organism: Giardia lamblia ATCC 50803
HLA-A*69:01 = test: as above; settings: source organism: Giardia lamblia ATCC 50803
HLA-B*07:02 = test: as above; settings: source organism: Giardia lamblia ATCC 50803
HLA-A*26:01 = test: as above; settings: source organism: Giardia lamblia ATCC 50803
HLA-A*01:01 = test: as above; settings: source organism: Giardia lamblia ATCC 50803
HLA-B*58:01 = test: as above; settings: source organism: Giardia lamblia ATCC 50803
HLA-B*15:01 [8] = test: as above; settings: source organism: Giardia lamblia ATCC 50803
HLA-B*27:05 = test: as above; settings: source organism: Giardia lamblia ATCC 50803
HLA-A*03:01 = test: as above; settings: source organism: Giardia lamblia ATCC 50803
HLA-B*46:01 = test: IEDB peptide-MHC binding, purified MHC/competitive/fluorescence; filed as Kd, often an IC50 or EC50 that approximates it; ≥ and ≤ were set here for values at or beyond the usual limits of such assays; settings: source organism: Giardia lamblia ATCC 50803
HLA-A*68:02 = test: IEDB peptide-MHC binding, purified MHC/competitive/radioactivity; filed as Kd, often an IC50 or EC50 that approximates it; ≥ and ≤ were set here for values at or beyond the usual limits of such assays; settings: source organism: Trypanosoma cruzi
HLA-A*02:03 = test: as above; settings: source organism: Trypanosoma cruzi
HLA-A*02:06 = test: as above; settings: source organism: Trypanosoma cruzi
HLA-A*02:02 = test: as above; settings: source organism: Trypanosoma cruzi
[9] = source organism: Vaccinia virus Copenhagen
[10] = source organism: Vaccinia virus WR

KTMAVTYEL was tested, and the pKd (HLA-B*08:01 [1]; [9]) was 7.73, the pKd (HLA-B*15:03; [9]) was 7.46 and the pKd (HLA-A*30:01; [9]) was 4.96. The pKd (HLA-B*15:01 [2]; [9]) was 8.26 and the pKd (HLA-A*32:01; [9]) was 9.24.
In the case of WITQCFLPV, the pKd (HLA-A*02:01 [3]; source organism: Homo sapiens) was 6.76.
QKFPYEGGK was tested, and the pIC50 (HLA-A*11:01 [4]; source organism: Vaccinia virus) was ≤ 3.86.
For ITFHNQRDF, the pKd (HLA-B*08:01 [5]) was ≤ 4.70, the pKd (HLA-B*57:01) was 6.90 and the pKd (HLA-A*02:01 [6]) was ≤ 4.70. The pKd (HLA-A*31:01) was ≤ 4.70, the pKd (HLA-B*40:01) was ≤ 4.70 and the pKd (HLA-B*44:02) was ≤ 4.70. The pKd (HLA-A*11:01 [7]) was ≤ 4.70, the pKd (HLA-B*15:17) was 8.28 and the pKd (HLA-A*69:01) was ≤ 4.70. For the same sequence, the pKd (HLA-B*07:02) was ≤ 4.70, the pKd (HLA-A*26:01) was ≤ 4.70 and the pKd (HLA-A*01:01) was ≤ 4.70. For the same sequence, the pKd (HLA-B*58:01) was 6.78, the pKd (HLA-B*15:01 [8]) was 6.83 and the pKd (HLA-B*27:05) was ≤ 4.70. For the same sequence, the pKd (HLA-A*03:01) was ≤ 4.70 and the pKd (HLA-B*46:01) was ≤ 4.70.
GLLPLLLLLG was tested, and the pKd (HLA-A*02:01 [3]; source organism: Trypanosoma cruzi) was 8.57, the pKd (HLA-A*68:02) was 5.15 and the pKd (HLA-A*02:03) was 6.96. It also gave a pKd (HLA-A*02:06) of 7.82 and a pKd (HLA-A*02:02) of 7.10.
RQYMFYKIF showed a pKd (HLA-B*15:03; [9]) of 10.16 and a pKd (HLA-A*32:01; [9]) of 7.71.
For LMYILGTYG, the pKd (HLA-B*08:01 [1]; [10]) was 6.02, the pKd (HLA-B*15:03; [10]) was 6.90 and the pKd (HLA-A*30:01; [10]) was 5.43. The pKd (HLA-B*15:01 [2]; [10]) was 7.21 and the pKd (HLA-A*32:01; [10]) was ≤ 4.63.
ISYTYNDNW was tested, and the pKd (HLA-B*08:01 [5]) was ≤ 4.70, the pKd (HLA-B*57:01) was 7.19 and the pKd (HLA-A*02:01 [6]) was ≤ 4.70. For the same sequence, the pKd (HLA-A*31:01) was ≤ 4.70, the pKd (HLA-B*40:01) was ≤ 4.70 and the pKd (HLA-B*44:02) was ≤ 4.70. The pKd (HLA-A*11:01 [7]) was ≤ 4.70, the pKd (HLA-B*15:17) was 8.85 and the pKd (HLA-A*69:01) was ≤ 4.70. The pKd (HLA-B*07:02) was ≤ 4.70, the pKd (HLA-A*26:01) was ≤ 4.70 and the pKd (HLA-B*58:01) was 7.93. For the same sequence, the pKd (HLA-B*15:01 [8]) was ≤ 4.70, the pKd (HLA-B*27:05) was ≤ 4.70 and the pKd (HLA-A*03:01) was ≤ 4.70.
FSIYSVSCF showed a pKd (HLA-B*15:03; [9]) of 8.12 and a pKd (HLA-B*15:01 [2]; [9]) of 8.51.
In the case of FLTYLDVSV, the pKd (HLA-A*02:01 [3]; source organism: Homo sapiens) was ≥ 9.00.
Work on TQALQLFLR yielded a pIC50 (HLA-A*11:01 [4]; source organism: Sudan ebolavirus) of 5.60.
